The target of data set [1] is T1, ZLD full-length (rZLD) (UniProt Q9VWC6 1-1596). The data set is described as follows: competition.
For data set [2], the target named is T2, ZLD DBD (MBP-ZLD1117-1487) (UniProt Q9VWC6 1117-1487).
T2 sequence: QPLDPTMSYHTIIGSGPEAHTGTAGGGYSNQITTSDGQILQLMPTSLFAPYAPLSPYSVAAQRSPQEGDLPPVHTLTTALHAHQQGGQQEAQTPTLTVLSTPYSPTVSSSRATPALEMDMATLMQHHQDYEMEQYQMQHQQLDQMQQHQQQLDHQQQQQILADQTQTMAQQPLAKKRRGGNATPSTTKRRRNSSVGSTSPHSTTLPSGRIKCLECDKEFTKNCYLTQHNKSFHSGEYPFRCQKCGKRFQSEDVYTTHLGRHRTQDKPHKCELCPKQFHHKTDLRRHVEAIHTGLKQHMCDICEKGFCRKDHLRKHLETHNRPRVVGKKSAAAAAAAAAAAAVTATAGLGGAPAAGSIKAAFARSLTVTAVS
In words: competition.

In data set [3] the target is T1, ZLD full-length (rZLD). The data set is described as follows: competition. The source holds these as a separate data set.
The target in data set [4] is T1, ZLD full-length (rZLD). The data set is described as follows: EMSA. A general note: A gel shift assay detects complexes by their altered migration in electrophoresis.

T1 sequence (Q9VWC6 whole entry): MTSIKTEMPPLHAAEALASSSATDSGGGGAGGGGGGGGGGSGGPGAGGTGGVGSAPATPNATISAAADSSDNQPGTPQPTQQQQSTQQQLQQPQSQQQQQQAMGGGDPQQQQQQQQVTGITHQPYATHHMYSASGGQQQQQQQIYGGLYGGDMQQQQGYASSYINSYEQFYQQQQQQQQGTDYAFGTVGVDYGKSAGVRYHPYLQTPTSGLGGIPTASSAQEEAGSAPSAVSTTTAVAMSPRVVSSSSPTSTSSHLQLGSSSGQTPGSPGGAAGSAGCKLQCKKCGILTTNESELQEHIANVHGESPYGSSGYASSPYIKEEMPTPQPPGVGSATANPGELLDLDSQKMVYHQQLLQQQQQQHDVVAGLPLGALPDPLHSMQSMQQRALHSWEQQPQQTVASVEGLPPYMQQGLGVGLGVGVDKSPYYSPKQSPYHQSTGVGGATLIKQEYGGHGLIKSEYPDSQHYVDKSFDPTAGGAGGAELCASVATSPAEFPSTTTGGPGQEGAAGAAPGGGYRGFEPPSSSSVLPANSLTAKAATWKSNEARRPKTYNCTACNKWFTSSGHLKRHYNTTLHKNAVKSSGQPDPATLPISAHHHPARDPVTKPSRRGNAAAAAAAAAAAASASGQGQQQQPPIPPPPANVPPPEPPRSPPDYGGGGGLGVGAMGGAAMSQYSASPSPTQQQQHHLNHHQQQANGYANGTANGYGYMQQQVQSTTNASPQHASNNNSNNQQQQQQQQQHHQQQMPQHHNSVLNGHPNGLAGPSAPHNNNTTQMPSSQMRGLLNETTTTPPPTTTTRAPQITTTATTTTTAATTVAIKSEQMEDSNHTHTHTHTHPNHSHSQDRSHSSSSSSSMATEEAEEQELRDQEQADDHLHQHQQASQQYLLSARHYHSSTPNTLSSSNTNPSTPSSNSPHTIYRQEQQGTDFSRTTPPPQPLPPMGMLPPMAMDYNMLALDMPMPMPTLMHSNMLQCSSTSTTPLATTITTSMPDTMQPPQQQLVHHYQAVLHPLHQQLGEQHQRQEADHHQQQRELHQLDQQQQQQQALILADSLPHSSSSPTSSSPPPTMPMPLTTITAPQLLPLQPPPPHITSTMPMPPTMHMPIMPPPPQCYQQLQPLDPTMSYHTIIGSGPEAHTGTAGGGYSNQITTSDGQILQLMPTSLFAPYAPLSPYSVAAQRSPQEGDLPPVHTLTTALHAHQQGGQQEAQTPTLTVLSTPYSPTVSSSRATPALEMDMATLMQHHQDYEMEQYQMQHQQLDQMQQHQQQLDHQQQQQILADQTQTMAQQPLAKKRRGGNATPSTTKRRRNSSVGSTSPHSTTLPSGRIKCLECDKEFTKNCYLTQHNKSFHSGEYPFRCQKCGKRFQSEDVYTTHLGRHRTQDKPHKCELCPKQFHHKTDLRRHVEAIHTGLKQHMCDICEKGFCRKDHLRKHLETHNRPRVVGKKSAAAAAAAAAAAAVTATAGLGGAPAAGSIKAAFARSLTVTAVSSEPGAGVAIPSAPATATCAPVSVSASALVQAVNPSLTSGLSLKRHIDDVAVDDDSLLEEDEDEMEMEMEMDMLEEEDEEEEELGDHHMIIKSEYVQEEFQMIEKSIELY

B1: scute mutant (nonspecific competitor) (dsDNA)
DNA 1: GAGAGAGAGTAGTTCTGGCTCACT
DNA 2: AGTGAGCCAGAACTACTCTCTCTC
For B1, the binding result with ZLD full-length (rZLD) [1] is on record as “no binding”.

B2: scute wild-type (specific competitor) (dsDNA)
DNA 1: GAGAGAGACTACCTGTGGCTCACT
DNA 2: AGTGAGCCACAGGTAGTCTCTCTC
Regarding B2, the binding result (in data set [2]; with ZLD full-length (rZLD) [3]) was “binds” each time.

B3: bnk DNA (dsDNA)
DNA 1: TCCTTTTTTACTTTCATAGCTTAGGTAGTGATCTCAGGTAGTTTCCCGGAATTAAGTTAGGCTGGGTATCGCCTATCGGGAGCGGCTACCTGAACTTTTGGCACCAGCTGTCGGGGGTGAAAACTGGACCAGGTAGTCTTTAGAAGTGCACCTATATAAG
DNA 2: CTTATATAGGTGCACTTCTAAAGACTACCTGGTCCAGTTTTCACCCCCGACAGCTGGTGCCAAAAGTTCAGGTAGCCGCTCCCGATAGGCGATACCCAGCCTAACTTAATTCCGGGAAACTACCTGAGATCACTACCTAAGCTATGAAAGTAAAAAAGGA
For B3, the binding result with ZLD full-length (rZLD) [4] is recorded as “binds”.

(Values after PMC6544384.)
